Data taken from patent US10591471B2, “Suppression of SPLA2-integrin binding for treating an inflammatory condition or suppressing cell proliferation” (THE REGENTS OF THE UNIVERSITY OF CALIFORNIA, priority 2015, dated 2020).
Where no end group is shown, it is not given here.

Experiments:
[1] = molecular target: T1, sPLA2-IIA catalytic activity (Homo sapiens, UniProt P14555); conditions: clinical trials; cited from earlier work
T1 sequence (P14555 21-144): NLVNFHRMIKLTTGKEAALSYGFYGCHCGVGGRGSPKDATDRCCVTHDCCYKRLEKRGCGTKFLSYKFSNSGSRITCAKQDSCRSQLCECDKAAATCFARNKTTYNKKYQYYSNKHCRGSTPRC

FKN-CD = molecular target: T2, FKN-CD (Homo sapiens, UniProt P78423); conditions: cited from earlier work
T2 sequence (P78423 25-100 limits assumed): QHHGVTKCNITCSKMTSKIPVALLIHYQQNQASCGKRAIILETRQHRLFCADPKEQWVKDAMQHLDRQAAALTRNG

[2] = system: integrin activation by FKN-CD; conditions: cited from earlier work
U937 cells = test: sPLA2-IIA-induced chemotaxis in modified Boyden chambers; type: cell-based, human; conditions: 1 μg/ml sPLA2-IIA, 20 μg/ml peptide, 5 h
Method: FIG. 11. S2-β1 peptide suppresses sPLA2-IIA-induced chemotaxis. Chemotaxis was measured in modified Boyden chambers. 1 μg/ml sPLA2-IIA and 20 μg/ml S2-β1 peptide or control peptides in 600 μl RPMI 1640 medium were placed in lower chamber, and U937 cells (2×10^5 cells in 100 μl RPMI 1640 medium) were placed in the upper chamber. After 5 hours of incubation at 37° C., cells in the lower chamber was counted.
Chemotaxis was measured in modified Boyden Chambers (Transwell). One μg/ml sPLA2-IIA and 20 μg/ml S2-β1 peptide or control peptides in 600 μl RPMI 1640 medium were placed in the lower chamber, and U937 cells (2×10^5 cells in 100 μl RPMI1640 medium) were placed in the upper chamber. After 5 h incubation at 37° C., cells in the lower chamber were counted.

sPLA2-IIA = molecular target: T3, sPLA2-IIA (Homo sapiens, UniProt P14555); test: ELISA-type binding of S2 peptides to immobilized sPLA2-IIA; conditions: GST-tagged peptides; sPLA2-IIA 20 μg/ml coating
T3 construct: made in house
T3 sequence (P14555 21-144): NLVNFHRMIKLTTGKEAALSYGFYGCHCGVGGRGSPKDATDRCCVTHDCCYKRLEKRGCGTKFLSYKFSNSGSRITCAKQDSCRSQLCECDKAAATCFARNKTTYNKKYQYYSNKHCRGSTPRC
Method: ELISA-type binding assays were performed as described previously (18). Briefly, wells of 96-well Immulon 2 microtiter plates (Dynatech Laboratories, Chantilly, Va.) were coated with 100 μl 0.1 M NaHCO3 containing sPLA2-IIA, γC399tr, FN-H120 for 2 h at 37° C. Remaining protein binding sites were blocked by incubating with PBS/0.1% BSA for 30 min at room temperature. After washing with PBS, S2 peptides were added to the wells and incubated in PBS for 2 h at room temperature. After unbound S2 peptides were removed by rinsing the wells with PBS, bound S2 peptides (GST-tagged) were measured using HRP-conjugated anti-GST antibody and peroxidase substrates.

[3] = system: other ligands (e.g., SDF-1, IGF-1); test: Additional testing: binding of linear and cyclic site 2 peptides to other ligands
Text: Data are shown in FIG. 12 comparing cyclic site 2 peptides (β1 and β3) binding to sPLA2-IIA or FKN.

[4] = system: integrin α5β1 on U937, K562 and CHO cells; test: Flow cytometry: binding of FITC-labeled FN8-11 to α5β1 on the cell surface; type: cell-based, human, Chinese hamster; conditions: sPLA2-IIA WT or mutants
Method: (§1) The cells were cultured to nearly confluent in RPMI 1640/10% FCS (K562 and U937) or DMEM/10% FCS (CHO cells). The cells were resuspended with RPMI 1640/0.02% BSA or DMEM/0.02% BSA and incubated for 30 min at room temperature to block remaining protein binding sites. The cells were then incubated with WT sPLA2-IIA or mutants for 5 min at room temperature and then incubated with FITC-labeled integrin ligands (γC399tr, FN-H120, FN8-11, and ADAM15) for 15 min at room temperature. For blocking experiments, sPLA-IIA was preincubated with S2-β1 peptide for 30 min at room temperature. The cells were washed with PBS/0.02% BSA and analyzed by FACSCalibur (Becton Dickinson, Mountain View, Calif.). For inhibition studies using Cmpd21, sPLA2-IIA was preincubated with Cmpd21 for 30 minutes at room temperature.

[5] = system: integrin ligands used in this study; test: ELISA: binding of sPLA2-IIA to the integrin ligands used; conditions: ligands coated at 2 μM
Method: FIG. 10. Lack of binding of sPLA2-IIA to integrin ligands used in the present study. Wells of 96-well microtiter plates were coated with ligands (2 μM coating concentration) and the remaining protein-binding sites were blocked with BSA. The wells were then incubated with sPLA2-IIA ([…] in PBS) for 2 hours at room temperature, and bound sPLA2-IIA was determined using HRP-conjugated anti-6His antibody. sPLA2-IIA (20 ng/ml coating concentration, 1% of input sPLA2-IIA) was used as a positive control. Data are shown as means+/−SEM of triplicate experiments.

[6] = system: integrin α4β1 on U937, α4-K562 and α4-CHO cells; test: Flow cytometry: binding of FITC-labeled fibronectin H120 fragment to α4β1 on the cell surface; type: cell-based, human; conditions: for binding of H120 to α4β1 (α4β1 activation): U937, α4-K562, α4-CHO cells, sPLA2-IIA WT or mutants
Method: as §1

[7] = molecular target: T4, integrin αvβ3 on U937, αvβ3-K562 and β3-CHO cells (Homo sapiens, UniProt P05106+P06756); test: Flow cytometry: binding of FITC-labeled ADAM15 disintegrin domain to αvβ3; type: cell-based; conditions: sPLA2-IIA 20 μg/ml
T4 construct: expressed in transfected cells; host or cells: U937 (endogenous αvβ3); αvβ3-K562 (transfected human αvβ3); β3-CHO (human β3 with hamster αv)
Method: as §1

[8] = system: integrin αvβ3 on U937, αvβ3-K562 and β3-CHO cells; test: Flow cytometry: binding of FITC-labeled γC399tr to αvβ3 on the cell surface; type: cell-based, human
Method: as §1

Listera = conditions: cited from earlier work
[9] = system: integrins αvβ3, α4β1, α5β1; test: sPLA2-IIA-induced integrin activation (present study overall)
Method: ELISA-type binding assays were performed as described previously (18). Briefly, wells of 96-well Immulon 2 microtiter plates (Dynatech Laboratories, Chantilly, Va.) were coated with 100 μl 0.1 M NaHCO3 containing γC399tr or ADAM15 for 2 h at 37° C. Remaining protein binding sites were blocked by incubating with PBS/0.1% BSA for 30 min at room temperature. After washing with PBS, soluble recombinant αvβ3 (5 μg/ml) in the presence or absence of sPLA2-IIA (WT or mutants) was added to the wells and incubated in HEPES-Tyrodes buffer (10 mM HEPES, 150 mM NaCl, 12 mM NaHCO3, 0.4 mM NaH2PO4, 2.5 mM KCl, 0.1% glucose, 0.1% BSA) with 1 mM CaCl2 for 2 h at room temperature. After unbound αvβ3 was removed by rinsing the wells with binding buffer, bound αvβ3 was measured using anti-integrin β3 mAb (AV-10) followed by HRP-conjugated goat anti-mouse IgG and peroxidase substrates.
The cells were cultured to nearly confluent in RPMI 1640/10% FCS (K562 and U937) or DMEM/10% FCS (CHO cells). The cells were resuspended with RPMI 1640/0.02% BSA or DMEM/0.02% BSA and incubated for 30 min at room temperature to block remaining protein binding sites. […] The cells were washed with PBS/0.02% BSA and analyzed by FACSCalibur (Becton Dickinson, Mountain View, Calif.). […]

[10] = molecular target: T5, β1 integrins on U937, K562 and α4-K562 cells (Homo sapiens, UniProt P05556); test: Reactivity of β1 integrins to activation-dependent antibodies HUTS4 and HUTS21; type: cell-based; conditions: U937, K562, α4-K562 cells in RPMI1640; preliminary experiments
T5 construct: endogenous in cells; host or cells: U937, K562, α4-K562
T5 sequence (P05556 21-798): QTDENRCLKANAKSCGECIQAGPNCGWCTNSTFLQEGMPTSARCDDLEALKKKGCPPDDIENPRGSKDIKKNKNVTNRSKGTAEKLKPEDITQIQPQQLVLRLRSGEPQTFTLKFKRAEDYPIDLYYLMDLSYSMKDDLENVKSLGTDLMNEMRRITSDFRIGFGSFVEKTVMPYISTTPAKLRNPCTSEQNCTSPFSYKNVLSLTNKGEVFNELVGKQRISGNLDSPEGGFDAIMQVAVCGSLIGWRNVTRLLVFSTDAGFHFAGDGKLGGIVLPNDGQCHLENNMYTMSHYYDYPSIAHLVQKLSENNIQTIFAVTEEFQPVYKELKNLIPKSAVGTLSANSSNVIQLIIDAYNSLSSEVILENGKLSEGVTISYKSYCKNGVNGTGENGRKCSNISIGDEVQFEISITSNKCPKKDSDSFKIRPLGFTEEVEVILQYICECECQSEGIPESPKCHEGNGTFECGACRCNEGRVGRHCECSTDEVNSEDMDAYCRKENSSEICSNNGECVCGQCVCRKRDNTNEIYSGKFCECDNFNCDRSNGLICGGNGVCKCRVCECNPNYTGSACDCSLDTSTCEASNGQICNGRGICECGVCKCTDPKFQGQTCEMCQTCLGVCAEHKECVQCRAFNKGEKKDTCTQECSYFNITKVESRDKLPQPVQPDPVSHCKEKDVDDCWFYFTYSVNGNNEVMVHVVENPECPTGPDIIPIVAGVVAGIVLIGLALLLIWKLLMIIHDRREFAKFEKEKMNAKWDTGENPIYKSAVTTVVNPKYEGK
T5 sequence (P08648 42-894 partner limits assumed): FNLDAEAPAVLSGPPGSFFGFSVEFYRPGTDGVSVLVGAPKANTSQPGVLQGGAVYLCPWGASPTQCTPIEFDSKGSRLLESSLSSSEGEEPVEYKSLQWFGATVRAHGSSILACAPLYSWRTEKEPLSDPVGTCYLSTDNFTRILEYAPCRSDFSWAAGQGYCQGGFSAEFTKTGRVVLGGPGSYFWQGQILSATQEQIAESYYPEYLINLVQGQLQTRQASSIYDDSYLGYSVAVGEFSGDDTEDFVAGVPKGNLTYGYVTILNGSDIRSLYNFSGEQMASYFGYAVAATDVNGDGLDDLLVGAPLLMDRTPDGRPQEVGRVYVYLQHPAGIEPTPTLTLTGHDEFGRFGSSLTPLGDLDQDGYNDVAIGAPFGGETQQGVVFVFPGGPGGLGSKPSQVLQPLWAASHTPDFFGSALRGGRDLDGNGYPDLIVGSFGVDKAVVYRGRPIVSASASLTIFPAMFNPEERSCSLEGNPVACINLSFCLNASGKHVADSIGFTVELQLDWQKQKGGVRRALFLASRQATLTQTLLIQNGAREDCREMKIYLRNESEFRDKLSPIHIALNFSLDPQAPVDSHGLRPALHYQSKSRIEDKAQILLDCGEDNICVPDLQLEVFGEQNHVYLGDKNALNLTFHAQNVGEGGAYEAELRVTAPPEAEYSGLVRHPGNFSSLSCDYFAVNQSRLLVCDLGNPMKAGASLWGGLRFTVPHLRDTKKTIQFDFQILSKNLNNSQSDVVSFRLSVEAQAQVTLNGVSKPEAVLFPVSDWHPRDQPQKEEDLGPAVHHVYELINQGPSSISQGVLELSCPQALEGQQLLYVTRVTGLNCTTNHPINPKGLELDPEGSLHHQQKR
T5 sequence (P08648 895-1049 partner limits assumed): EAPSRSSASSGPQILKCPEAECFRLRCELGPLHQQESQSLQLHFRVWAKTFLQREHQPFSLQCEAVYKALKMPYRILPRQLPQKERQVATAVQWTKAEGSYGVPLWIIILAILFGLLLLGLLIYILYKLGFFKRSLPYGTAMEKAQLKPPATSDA
Text: It is unclear whether sPLA2-IIA-induced integrin activation requires global conformational changes in integrins. In current models of integrin activation, activation of β1 integrins induces a swing-out movement of the hybrid domain and exposes epitopes recognized by activation-dependent antibodies (anti-human β1 HUTS4 and HUTS21)(45). The HUTS4 and HUTS21 epitopes are located in the hybrid domain of […] (46,47). […] It is possible that the binding of sPLA2-IIA to site 2 induces only local conformational changes within the headpiece of integrins. […] It was shown that sPLA2-IIA (the current study) FKN-CD (19) actually bind to site 2 and the binding of sPLA2-IIA and FKN to site 2 is required for integrin activation using the peptides from site 2. It is likely that integrins that are activated by sPLA2-IIA and FKN-CD through site 2 have conformations similar to the open-headpiece αvβ3 that has no global conformational changes compared to the closed-headpiece form. The open- and closed-headpiece conformations of αvβ3 may really reflect the fact that integrins can be activated without global conformational changes through allosteric mechanism.

CCc1c(C(=O)C(N)=O)c2c(OCC(=O)OC)cccc2n1Cc1ccccc1 [S-3013/LY333013]
therapeutic effect in rheumatoid arthritis and asthma [1]: failed to demonstrate a significant therapeutic effect

CCc1c(C(=O)C(N)=O)c2c(OCC(=O)[O-])cccc2n1Cc1ccccc1.[Na+] [S-5920/LY315920Na]
therapeutic effect in rheumatoid arthritis and asthma [1]: failed to demonstrate a significant therapeutic effect

QPNDGQSHVGSDNHYSASTTM [S2-β3 peptide, site 2 peptide, residues 267-287 of β3, C273 changed to S, GST fusion protein]
binding to FKN-CD (FKN-CD): directly binds to FKN-CD
FKN-CD-induced integrin activation [2]: suppresses FKN-CD-induced integrin activation

S2-β1 peptide: site 2 peptide from integrin β1 (β1 275-294, SEQ ID NO:1), made as GST fusion protein (LPNDGQCHLENNMYTMSHYY; also: made as GST fusion protein)
chemotaxis induced by sPLA2-IIA (U937 cells): suppressed chemotaxis induced by sPLA2-IIA
binding of site 2 peptide to immobilized sPLA2-IIA (sPLA2-IIA): bound better to sPLA2-IIA in a concentration-dependent manner than S2-β3 peptide

VHDSHYSGQGAMSDNTNSPQT [Compound S2-β3scr, scrambled site 2 peptide, GST fusion protein, control, reference compound]
FKN-CD-induced integrin activation [2]: does not
binding of site 2 peptide to immobilized sPLA2-IIA (sPLA2-IIA): did not bind to sPLA2-IIA

linear β1 peptide: linear peptide comprising SEQ ID NO:1, GST fusion (LPNDGQCHLENNMYTMSHYY; also: GST fusion)
binding to other ligands (e.g., SDF-1, IGF-1) [3]: did not bind to other ligands

B1: WT sPLA2-IIA: recombinant human secreted phospholipase A2 type IIA, wild type (protein)
chain: NLVNFHRMIKLTTGKEAALSYGFYGCHCGVGGRGSPKDATDRCCVTHDCCYKRLEKRGCGTKFLSYKFSNSGSRITCAKQDSCRSQLCECDKAAATCFARNKTTYNKKYQYYSNKHCRGSTPRC
binding of FITC-labeled FN8-11 to α5β1 (α5β1 activation) [4]: markedly increased the binding of FITC-labeled FN8-11
direct interaction of sPLA2-IIA with integrin ligands [5]: does not directly interact with the integrin ligands used in this study
binding of H120 to α4β1 (α4β1 activation) [6]: markedly increased the binding of H120 to α4β1
sPLA2-IIA concentration of maximum H120 binding ([6]; α4-CHO cells, sPLA2-IIA up to 500 μg/ml, binding reduced at higher concentrations): 20 µg/mL
binding of FITC-labeled ADAM15 disintegrin domain to αvβ3 [7]: markedly enhanced
activation of αvβ3 on the cell surface (FITC-γC399tr binding) [8]: activated αvβ3
concentration that kills Listera (Listera): < 0.1 nM
sPLA2-IIA concentration required to detect integrin activation [9]: > 5 µg/mL
reactivity of β1 integrins to HUTS4 and HUTS21 [10]: did not change reactivity of β1 integrins to HUTS4 and HUTS21

B2: G29S/D48K: M-type receptor-binding defective mutant of sPLA2-IIA (protein)
chain: NLVNFHRMIKLTTGKEAALSYGFYGCHCSVGGRGSPKDATDRCCVTHKCCYKRLEKRGCGTKFLSYKFSNSGSRITCAKQDSCRSQLCECDKAAATCFARNKTTYNKKYQYYSNKHCRGSTPRC
modifications: left off: small tags and cut ends
binding of FITC-labeled FN8-11 to α5β1 (α5β1 activation) [4]: induced α5β1 activation
binding of H120 to α4β1 (α4β1 activation) [6]: induced α4β1 activation

B3: R74E/R100E: integrin-binding defective mutant of sPLA2-IIA (protein)
chain: NLVNFHRMIKLTTGKEAALSYGFYGCHCGVGGRGSPKDATDRCCVTHDCCYKRLEKRGCGTKFLSYKFSNSGSEITCAKQDSCRSQLCECDKAAATCFAENKTTYNKKYQYYSNKHCRGSTPRC
modifications: left off: small tags and cut ends
binding of FITC-labeled FN8-11 to α5β1 (α5β1 activation) [4]: did not
